Laboratory results taken from the supplement of paper PMC9112550, “Optimization of the antimicrobial peptide Bac7 by deep mutational scanning” (BMC Biology, 2022).

test system: Escherichia coli TOP10; experiment: shrunken log2 fold change of peptide-encoding DNA abundance (4.5 h post-induction vs induction); higher = less antimicrobial activity (less host growth inhibition); conditions: time post-induction: 4.5 h; library: site-saturation at positions 5, 18, 19, 20
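Also: peptides expressed intracellularly from a pBAD plasmid library in pooled LB shake-flask culture, induced with 0.3% L-arabinose, DNA abundance read by NGS, three biological replicates, DESeq2 with apeglm shrinkage.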

| Sequence | shrunken log2 fold change |
| --- | --- |
| RRIRMRPPRLPRPRPRPVVIPRP | -0.174 |
| RRIRCRPPRLPRPRPRPKYFPRP | -0.501 |
| RRIRYRPPRLPRPRPRPVMWPRP | 3.51 |
| RRIRTRPPRLPRPRPRPEPVPRP | 0.272 |
| RRIRQRPPRLPRPRPRPHPEPRP | 0.0615 |
| RRIRTRPPRLPRPRPRPKKCPRP | -0.0193 |
| RRIRQRPPRLPRPRPRPNGGPRP | 0.00705 |
| RRIRTRPPRLPRPRPRPASPPRP | 0.209 |
| RRIRDRPPRLPRPRPRPVVEPRP | 0.321 |
| RRIRTRPPRLPRPRPRPFTPPRP | -0.0472 |
| RRIRKRPPRLPRPRPRPPCGPRP | 0.614 |
| RRIRCRPPRLPRPRPRPAIIPRP | -0.786 |
| RRIRVRPPRLPRPRPRPIVDPRP | -0.142 |
| RRIRPRPPRLPRPRPRPYPCPRP | -0.134 |
| RRIRVRPPRLPRPRPRPRIQPRP | -0.196 |
| RRIRCRPPRLPRPRPRPWRRPRP | 0.0523 |
| RRIRRRPPRLPRPRPRPYMTPRP | -0.0329 |
| RRIRSRPPRLPRPRPRPCSHPRP | -0.174 |
| RRIRWRPPRLPRPRPRPAMIPRP | -0.0987 |
| RRIRLRPPRLPRPRPRPRPTPRP | 0.484 |
| RRIRQRPPRLPRPRPRPKFLPRP | -0.157 |
| RRIRHRPPRLPRPRPRPITGPRP | 0.015 |
| RRIRERPPRLPRPRPRPAWNPRP | 0.167 |
| RRIRNRPPRLPRPRPRPYSSPRP | -0.027 |
| RRIRRRPPRLPRPRPRPWSKPRP | -0.225 |

| Sequence | shrunken log2 fold change |
| --- | --- |
| RRIRERPPRLPRPRPRPVMSPRP | 0.0484 |
| RRIRARPPRLPRPRPRPFAVPRP | 0.129 |
| RRIRWRPPRLPRPRPRPKWWPRP | 0.266 |
| RRIRGRPPRLPRPRPRPSRGPRP | 0.605 |
| RRIRVRPPRLPRPRPRPKAMPRP | 0.0194 |
| RRIRYRPPRLPRPRPRPKNMPRP | -0.477 |
| RRIRLRPPRLPRPRPRPDEMPRP | 0.123 |
| RRIRQRPPRLPRPRPRPEMFPRP | -0.118 |
| RRIRLRPPRLPRPRPRPVQEPRP | -0.0609 |
| RRIRQRPPRLPRPRPRPKLNPRP | -0.165 |
| RRIRLRPPRLPRPRPRPCTHPRP | -0.0381 |
| RRIRCRPPRLPRPRPRPVHLPRP | 0.0885 |
| RRIRPRPPRLPRPRPRPSFEPRP | -0.102 |
| RRIRMRPPRLPRPRPRPHIWPRP | -0.0244 |
| RRIRERPPRLPRPRPRPEFVPRP | 0.137 |
| RRIRARPPRLPRPRPRPYIRPRP | -0.406 |
| RRIRCRPPRLPRPRPRPHMDPRP | -0.329 |
| RRIRHRPPRLPRPRPRPCWVPRP | -0.0013 |
| RRIRRRPPRLPRPRPRPRDAPRP | 0.736 |
| RRIRCRPPRLPRPRPRPASGPRP | 0.148 |
| RRIRCRPPRLPRPRPRPRVQPRP | 0.241 |
| RRIRFRPPRLPRPRPRPFKVPRP | -0.327 |
| RRIRKRPPRLPRPRPRPEEAPRP | 3.85 |
| RRIRNRPPRLPRPRPRPVQHPRP | -0.258 |
| RRIRGRPPRLPRPRPRPALHPRP | 0.866 |

| Sequence | shrunken log2 fold change |
| --- | --- |
| RRIRCRPPRLPRPRPRPWGLPRP | -0.268 |
| RRIRCRPPRLPRPRPRPECVPRP | 0.588 |
| RRIRSRPPRLPRPRPRPLIRPRP | -0.196 |
| RRIRMRPPRLPRPRPRPYVFPRP | -0.368 |
| RRIRWRPPRLPRPRPRPSWVPRP | 0.0566 |
| RRIRFRPPRLPRPRPRPSTNPRP | -0.147 |
| RRIRCRPPRLPRPRPRPVVSPRP | -0.229 |
| RRIRGRPPRLPRPRPRPPPDPRP | 1.37 |
| RRIRQRPPRLPRPRPRPNFCPRP | 0.117 |
| RRIRIRPPRLPRPRPRPFPAPRP | -0.299 |
| RRIRVRPPRLPRPRPRPTLCPRP | 0.0223 |
| RRIRERPPRLPRPRPRPQTMPRP | -0.157 |
| RRIRFRPPRLPRPRPRPPHEPRP | -0.064 |
| RRIRMRPPRLPRPRPRPGGFPRP | 1.06 |
| RRIRERPPRLPRPRPRPYVFPRP | -0.575 |
| RRIRHRPPRLPRPRPRPEFGPRP | 0.308 |
| RRIRTRPPRLPRPRPRPSKSPRP | -0.437 |
| RRIRIRPPRLPRPRPRPDKGPRP | 0.0101 |
| RRIRVRPPRLPRPRPRPQSNPRP | -0.394 |
| RRIRVRPPRLPRPRPRPAYWPRP | -0.000323 |
| RRIRKRPPRLPRPRPRPAHLPRP | -0.00667 |
| RRIRHRPPRLPRPRPRPPLVPRP | 0.0953 |
| RRIRKRPPRLPRPRPRPRRGPRP | 0.799 |
| RRIRNRPPRLPRPRPRPSTFPRP | -0.276 |
| RRIRCRPPRLPRPRPRPCGGPRP | 0.113 |
